{"source": "patent US20210347873A1", "about": "(SHANGHAI PHARMAEXPLORER, published 2021)", "molecules": {"B1": {"name": "c97A3C2H4 (antibody, V domains shown)", "VH": "EVKLVESGGGLVQPGGSLKLSCAASGFTFSTYTMSWVRQTPEKRLEWVAYISYGGGSTSYPDTVKGRFTISRDNAKNTLYLQMSSLKSEDTAIYYCTRHVTVVENSMDYWGQGTSVTVSS", "VL": "DILLTQSPDILSVSPGERVSFSCRASQSIGTSIHWYQQRTNGSPRLLIKYVSESFSGTPSRFSGSGSGTAFTLTINSVESEDIADYYCQQTHSWPWTFGGGTKLEIK", "notes": "also called chimeric antibody c97A3C2H4"}, "B2": {"name": "97A3C2H4 (antibody, V domains shown)", "VH": "EVKLVESGGGLVQPGGSLKLSCAASGFTFSTYTMSWVRQTPEKRLEWVAYISYGGGSTSYPDTVKGRFTISRDNAKNTLYLQMSSLKSEDTAIYYCTRHVTVVENSMDYWGQGTSVTVSS", "VL": "DILLTQSPDILSVSPGERVSFSCRASQSIGTSIHWYQQRTNGSPRLLIKYVSESFSGTPSRFSGSGSGTAFTLTINSVESEDIADYYCQQTHSWPWTFGGGTKLEIK", "notes": "Mouse hybridoma antibody purified on Protein G"}, "B3": {"name": "111D10D6G3 (antibody, V domains shown)", "VH": "QVQLQQPGAELVKPGASVKMSCKASGYTFTRHWITWVKQRPGQGLEWIGDIFPGSGSINYNEKFKSEATLTVEKSSSTAYMQLSSLTSEDSAVYYCARGDVDVWGTGTTVTVSS", "VL": "DIQMTQSPSSLSASLGERVSLTCRASQEIRGYLSWLQQKPNGTIKRLIYAASTLDSGVPKRFSATRSGSDFSLTISSLESEDFADYYCLQYASYPFTFGSGTKLEIK", "notes": "as for B2"}, "B4": {"name": "c8E7D9C7F5 (antibody, V domains shown)", "VH": "QVQLQQSGVELARPGASVKLSCKASGYTFTSYGISWVKQRTGQALEWIGEIYPRSGNTYYNEKFKGKATLTADKSSSTAYMELRSLTSEDSAVYFCARSGPITTLVATDYGMDYWGQGTSVTVSS", "VL": "DIVLTQSPASLAVSLGQRATISCRASKSVSTSSYSYMHWYQQKPGQPPKLLIKFASNLESGVPARFSGSGSGTDFTLNIHPVEEEDAATYYCQHSREFPYTFGGGTKLEIK", "notes": "also called chimeric antibody c8E7D9C7F5"}}, "key": {"[1]": {"biological_target": "biotinylated hBLyS-ECD (human) (UniProt Q9Y275)", "sequence (Q9Y275 134-285)": "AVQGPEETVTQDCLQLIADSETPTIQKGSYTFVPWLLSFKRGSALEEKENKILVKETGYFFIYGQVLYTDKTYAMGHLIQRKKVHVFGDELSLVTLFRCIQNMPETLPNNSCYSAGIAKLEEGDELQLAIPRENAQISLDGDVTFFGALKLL", "assay": "ELISA, biotinylated hBLyS-ECD captured on streptavidin; antibody 0.534 nM"}, "[2]": {"biological_target": "cynomolgus BLyS (full length, arginine to histidine at position 132) on CHO-K1 cells (cynomolgus)", "assay": "flow cytometry, CHO-K1 cynoBLyS cells, antibody 0.534 nM"}, "[3]": {"biological_target": "cynomolgus BLyS (full length, arginine to histidine at position 132) on CHO-K1 cells (cynomolgus)", "assay": "flow cytometry, CHO-K1 cynoBLyS cells, antibody 66.7 nM"}, "[4]": {"biological_target": "cynomolgus BLyS (full length, arginine to histidine at position 132) on CHO-K1 cells (cynomolgus)", "assay": "flow cytometry, CHO-K1 cynoBLyS cells, antibody 13.3 nM"}, "[5]": {"biological_target": "cynomolgus BLyS (full length, arginine to histidine at position 132) on CHO-K1 cells (cynomolgus)", "assay": "flow cytometry, CHO-K1 cynoBLyS cells, antibody 0.107 nM"}, "[6]": {"biological_target": "biotinylated hBLyS-ECD (human) (UniProt Q9Y275)", "assay": "ELISA, biotinylated hBLyS-ECD captured on streptavidin; antibody 0.107 nM"}, "[7]": {"biological_target": "biotinylated hBLyS-ECD (human) (UniProt Q9Y275)", "assay": "blocking ELISA: biotinylated hBLyS-ECD on coated BAFF R, antibody 0.16 nM"}, "[8]": {"biological_target": "cynomolgus BLyS (full length, arginine to histidine at position 132) on CHO-K1 cells (cynomolgus)", "assay": "flow cytometry, CHO-K1 cynoBLyS cells, antibody 0 nM"}, "[9]": {"biological_target": "biotinylated hBLyS-ECD (human) (UniProt Q9Y275)", "assay": "ELISA on captured biotinylated hBLyS-ECD; control antibody 0.107 nM"}, "[10]": {"biological_target": "extracellular domain of human BLyS protein (hBLyS-ECD), His-tagged, Ala134-Leu285 (human) (UniProt Q9Y275)", "sequence (Q9Y275 134-285)": "as above", "assay": "cell-based or functional assay"}, "biotinylated hBLyS-ECD [11]": {"biological_target": "T1, biotinylated hBLyS-ECD (human, UniProt Q9Y275 134-285, biotinylated with Biotin-X-X-NHS (molar ratio 7:1); sites not stated)", "T1 construct": "also called biotinylated immunogen; biotinylated hBLvS-ECD", "T1 sequence (Q9Y275 134-285)": "as above", "assay": "ELISA on captured biotinylated hBLyS-ECD; antibody 0.00427 nM"}, "biotinylated hBLyS-ECD [12]": {"biological_target": "T1, biotinylated hBLyS-ECD", "assay": "BAFF R-coated ELISA, biotinylated hBLyS-ECD bound in presence of antibody 0.16 nM"}, "biotinylated hBLyS-ECD [13]": {"biological_target": "T1, biotinylated hBLyS-ECD", "assay": "ELISA on captured biotinylated hBLyS-ECD; antibody 0 nM (background)"}, "biotinylated hBLyS-ECD [14]": {"biological_target": "T1, biotinylated hBLyS-ECD", "assay": "BAFF R-coated ELISA, biotinylated hBLyS-ECD bound in presence of antibody 0 nM"}, "biotinylated hBLyS-ECD [15]": {"biological_target": "T1, biotinylated hBLyS-ECD", "assay": "ELISA on captured biotinylated hBLyS-ECD; antibody 66.7 nM"}, "[16]": {"biological_target": "T2, extracellular domain of human BLyS protein (hBLyS-ECD), His-tagged, Ala134-Leu285 (human, UniProt Q9Y275 134-285)", "T2 construct": "Expressed in HEK293 cells and purified on a Ni column; also called immunogen", "T2 sequence (Q9Y275 134-285)": "as above", "assay": "SPR (Biacore), antibody captured by anti-human Fc, hBLyS-ECD as analyte", "procedure": "Affinity constants were determined using a Biacore X100 instrument (purchased from GE Healthcare). Detailed operations and methods referred to the instrument manuals and detailed methods provided by manufacturers, specifically: determining affinity constant using a CM5 chip (Sensor Chip CM5, purchased from GE Healthcare). […] Then 1 M ethanolamine was injected in chip to block the remaining activation sites. After the antibody to be tested (i.e., the human BLyS antibody prepared by Embodiment 2) was captured by chip, 7 different gradient of immunogen dilutions (i.e., hBLyS-ECD) prepared by Embodiment 1 were injected and the binding and dissociation of antigen with antibody was detected by a Biacore instrument. The dissociation constant and binding constant were then fitted by Biacore X100 Evaluation Software 2.0, while the affinity constant was the ratio of dissociation constant to binding constant.\nThe binding and dissociation between antibody and antigen was detected by Biacore."}, "biotinylated hBLyS-ECD [17]": {"biological_target": "T3, biotinylated hBLyS-ECD (human, UniProt Q9Y275 134-285, biotinylated with Biotin-X-X-NHS (molar ratio 7:1), sites not stated)", "T3 construct": "The hBLyS-ECD of Embodiment 1 after biotinylation (Embodiment 2); also called biotinylated immunogen; BLyS protein; not shown: His tag of the pCPC vector", "T3 sequence (Q9Y275 134-285)": "as above", "assay": "ELISA: biotinylated hBLyS-ECD captured on streptavidin, antibody titrated, HRP secondary antibody [label printed at the top of D00004]", "procedure": "Streptavidin was first diluted to a final concentration of 1.0 μg/mL with PBS, and then 50 μL of diluted streptavidin per well was aliquoted into 96-well ELISA plate, which was subsequently sealed with plastic film and incubated at 4° C. overnight. On the next day the plate was washed four times with the plate washing buffer [PBS buffer containing 0.05% (v/v) Tween20] and added with the blocking solution [PBS buffer containing 0.05% (v/v) Tween20 and 1% (w/w) BSA] and blocked for 2 hours at 37° C. The blocking solution was removed, the biotinylated hBLyS-ECD prepared in Embodiment 2 was diluted with PBS to a final concentration of 50 ng/mL and then aliquoted into the 96-well ELISA plate at 50 μL per well and incubated for 1 hour at 37° C. After rinsing the plate four times with the plate washing buffer [PBS buffer containing 0.05% (v/v) Tween20], 100 μl of the purified lead antibody harvested in Embodiment 1 and 2 was pipetted into each well. After incubation for 1 hour at 37° C., the plate was rinsed four times with the plate washing buffer [PBS buffer containing 0.05% (v/v) Tween20]. HRP-labeled (horseradish peroxidase) secondary antibody (purchased from Sigma) was added in and incubated at 37° C. for 1 hour. The plate was then rinsed four times with the plate washing buffer [PBS buffer containing 0.05% (v/v) Tween20]. 100 μL of TMB substrate was aliquoted into each well and after incubation for 5 minutes at room temperature, 100 μL of stop solution (1.0 N HCl) was aliquoted into each well. A₄₅₀ₙₘ values were read via an ELISA plate reader (SpectraMax M5e purchased from Molecular Devices) and the results were shown in FIGS. 5A-5B and Table 10."}}, "data": [{"molecule": "mIgG Control (antibody)", "values": [{"measurement": "OD450 nm", "setting": "[1]", "result": 0.0594}, {"measurement": "MFI", "setting": "[2]", "result": 20, "unit": "MFI"}, {"measurement": "MFI", "setting": "[3]", "result": 21.6, "unit": "MFI"}, {"measurement": "MFI", "setting": "[4]", "result": 20.7, "unit": "MFI"}, {"measurement": "MFI", "setting": "[5]", "result": 19.7, "unit": "MFI"}, {"measurement": "OD450 nm", "setting": "[6]", "result": 0.0562}, {"measurement": "OD450 nm", "setting": "[7]", "result": 1.47, "unit": "OD450 nm"}, {"measurement": "MFI", "setting": "[8]", "result": 19.8, "unit": "MFI"}]}, {"molecule": "hIgG Control (antibody)", "values": [{"measurement": "OD450 nm", "setting": "[1]", "result": 0.0916}, {"measurement": "OD450 nm", "setting": "[9]", "result": 0.117, "unit": "OD450 nm"}, {"measurement": "Proportion of B lymphocytes in splenocytes (%), in vivo in mice", "setting": "[10]", "result": 39.4, "unit": "%"}, {"measurement": "MFI", "setting": "[2]", "result": 22.6, "unit": "MFI"}, {"measurement": "MFI", "setting": "[3]", "result": 44.2, "unit": "MFI"}, {"measurement": "MFI", "setting": "[4]", "result": 26.7, "unit": "MFI"}, {"measurement": "MFI", "setting": "[5]", "result": 22.8, "unit": "MFI"}, {"measurement": "OD450 nm", "setting": "[6]", "result": 0.0905}, {"measurement": "OD450 nm", "setting": "[7]", "result": 1.08, "unit": "OD450 nm"}, {"measurement": "MFI", "setting": "[8]", "result": 20.7, "unit": "MFI"}]}, {"molecule": "B1", "values": [{"measurement": "OD450 nm", "setting": "biotinylated hBLyS-ECD [11]", "result": 0.25, "unit": "OD450 nm"}, {"measurement": "OD450 nm", "setting": "biotinylated hBLyS-ECD [12]", "result": 1.79, "unit": "OD450 nm"}, {"measurement": "OD450 nm", "setting": "biotinylated hBLyS-ECD [13]", "result": 0.122, "unit": "OD450 nm"}, {"measurement": "OD450 nm", "setting": "biotinylated hBLyS-ECD [14]", "result": 1.91, "unit": "OD450 nm"}, {"measurement": "OD450 nm", "setting": "biotinylated hBLyS-ECD [15]", "result": 3.3, "unit": "OD450 nm"}, {"measurement": "Kd", "setting": "[16]", "result": 1.49, "unit": "nM"}, {"measurement": "koff", "setting": "[16]", "result": 0.000179, "unit": "s⁻¹"}, {"measurement": "kon", "setting": "[16]", "result": 121000, "unit": "M⁻¹ s⁻¹"}]}, {"molecule": "B2", "values": [{"measurement": "EC50 (read off the curve)", "setting": "biotinylated hBLyS-ECD [17]", "result": "~0.2", "unit": "nM"}]}, {"molecule": "B3", "values": [{"measurement": "EC50 (read off the curve)", "setting": "biotinylated hBLyS-ECD [17]", "result": "~0.2", "unit": "nM"}]}, {"molecule": "B4", "values": [{"measurement": "OD450 nm", "setting": "biotinylated hBLyS-ECD [11]", "result": 0.176, "unit": "OD450 nm"}, {"measurement": "OD450 nm", "setting": "biotinylated hBLyS-ECD [12]", "result": 1.85, "unit": "OD450 nm"}, {"measurement": "OD450 nm", "setting": "biotinylated hBLyS-ECD [13]", "result": 0.0918, "unit": "OD450 nm"}, {"measurement": "OD450 nm", "setting": "biotinylated hBLyS-ECD [14]", "result": 1.95, "unit": "OD450 nm"}, {"measurement": "OD450 nm", "setting": "biotinylated hBLyS-ECD [15]", "result": 3.31, "unit": "OD450 nm"}, {"measurement": "Kd", "setting": "[16]", "result": 2.94, "unit": "nM"}, {"measurement": "koff", "setting": "[16]", "result": 0.000714, "unit": "s⁻¹"}, {"measurement": "kon", "setting": "[16]", "result": 243000, "unit": "M⁻¹ s⁻¹"}]}]}
